This is an account of results in patent US6846636B1, “Methods and compositions for HDL holoparticle uptake receptor” (American National Red Cross, priority 1998, dated 2005).

The subject of experiment [1] is RA/Bt2cAMP-treated F9 cells. Description: DiI-HDL uptake by laser scanning confocal fluorescence microscopy. The format is cell-based, mouse. As to conditions: DiI-HDL 1 μg/ml, 2-4 h at 37° C., LDL 40 μg/ml, RAP 1 μM. The protocol:
Cells were plated into gelatin-coated wells of 8-well plastic chamber slides (Nalge Nunc, Naperville, Ill.) (4×10^4 cells/cm^2) and incubated at 37° C., 5% CO2 for 2 hours. The cells were washed with serum-free DMEM and incubated in serum-free DMEM containing ITS (insulin 5 μg/ml, transferrin 5 μg/ml, sodium selenite 5 ng/ml, Boehringer Mannheim, Germany), penicillin, and streptomycin for 18 hours at 37° C., 5% CO2. Prior to addition of DiI-HDL, the cells were incubated with serum-free DMEM containing unlabeled HDL3 (40 μg/ml) or RAP (1 μM) for 0.5 hour at 37° C., 5% CO2. DiI-HDL (1 μg/ml) in serum-free DMEM or in serum-free DMEM containing unlabeled HDL3 (40 μg/ml) or RAP (1 μM) was then incubated with the cells for 2-4 hours at 37° C., 5% CO2. The cells were washed three times with Dulbecco's phosphate buffered saline (dPBS), fixed in 3% formaldehyde in dPBS for 20 minutes at room temperature. […]
Cells were plated into gelatin-coated wells of plastic chamber slides (Nalge Nunc, Naperville, Ill.) (4×10^4 cells/cm^2) and incubated at 37° C., 5% CO2 for 2 h. […] The cells were washed with dPBS, fixed in 3% formaldehyde in dPBS for 20 min at 25° C. and analyzed using a BiORad MRC1024 laser scanning confocal microscope.

Experiment [2] has as its system RA/Bt2cAMP-treated F9 cells. Description: [125I]-HDL internalization and degradation assay. As to conditions: [125I]-HDL 2 μg/ml, 6.5 h at 37° C.; unlabeled HDL 80 μg/ml, RAP 1 μM, chloroquine 50 μM, anti-cubilin IgG 150 μg/ml. The format is cell-based, mouse. The method, then:
HDL internalization and degradation assays were performed in a manner similar to LDL and apolipoprotein J internalization and degradation assays described previously (Stefansson et al., 1995; Kounnas et al., 1995). ApoE-free HDL (HDL3) was labeled with [^125I]-iodine using the iodine monochloride method (Goldstein et al., 1983). RA/Bt2cAMP-treated and -untreated F9 cells were seeded onto gelatin-coated 3.83 cm^2 wells (Corning, Corning, N.Y.) at 1.5-1.75×10^5 cells/well and allowed to grow for 18 h at 37° C., 5% CO2. Prior to the addition of [^125I]-HDL, the cells were washed with serum-free DMEM and incubated in the assay medium (DMEM, 20 mM HEPES, ITS, penicillin/streptomycin, and 1.5% BSA) containing unlabeled HDL3 (80 μg/ml), RAP (1 μM), chloroquine (50 μM) (Sigma) or BSA (10 μM) and incubated for 0.5 hours at 37° C., 5% CO2. The medium was then removed and [^125I]-HDL3 (2 μg/ml) in serum-free medium or in serum-free medium containing unlabeled HDL3 (80 μg/ml), RAP (1 μM), chloroquine (50 μM) or BSA (10 μM) was added and incubated with the cells for 6.5 h at 37° C., 5% CO2. The conditioned culture medium was treated with trichloroacetic acid (final concentration 10%) and centrifuged at 10,000×g for 10 min. The amount of radioactivity present in the supernatant was taken to represent the amount of degraded HDL (Goldstein and Brown, 1974). […] The released cells were pelleted by centrifugation at 1,000×g for 15 min and the amount of radioactivity in the cell pellet measured.
HDL internalization and degradation assays were performed as described previously for LDL and apolipoprotein J (Hammad et al., 1997; Kounnas et al., 1995; Stefansson et al., 1995a). […] The amount of radioactivity in the supernatant was taken to represent the amount of degraded HDL (Goldstein and Brown, 1974). […] The released cells were pelleted by centrifugation at 1,000×g for 15 min and the amount of radioactivity in the cell pellet was measured and taken to represent the amount of internalized HDL.

B1: RAP: 39 kDa chaperone protein that inhibits ligand binding to LDLR family members; recombinant human RAP (protein, UniProt P30533 35-357, looked up)
Alpha-2-macroglobulin …: YSREKNQPKPSPKRESGEEFRMEKLNQLWEKAQRLHLPPVRLAELHADLKIQERDELAWKKLKLDGLDEDGEKEARLIRNLNVILAKYGLDGKKDARQVTSNSLSGTQEDGLDDPRLEKLWHKAKTSGKFSGEELDKLWREFLHHKEKVHEYNVLLETLSRTEEIHENVISPSDLSDIKGSVLHSRHTELKEKLRSINQGLDRLRRVSHQGYSTEAEFEEPRVIDLWDLAQSANLTDKELEAFREELKHFEAKIEKHNHYQKQLEIAHEKLRHAESVGDGERVSRSREKHALLEGRTKELGYTVKKHLQDLSGRISRARHNEL
In the case of B1, in experiment [1], the “uptake of DiI-HDL (cell staining)” value was “completely blocked”. Moreover, in experiment [2], the “degradation of [125I]-HDL” value was “inhibited the endocytosis and degradation”; the “internalization (endocytosis) of [125I]-HDL” value was “inhibited the endocytosis and degradation”.
